Test results as given in patent US20190367631A1 (Regeneron, published 2019).

Assays:
[1] = biological target: T1, human MSR1 extracellular domain expressed with a N-terminal nonahistidine tag (human, UniProt P21757 77-451); assay: competition ELISA, plate-coated His9-hMSR1; 300 nM antibody, competitor ligand biot-AGE-BSA
T1 construct: extracellular domain; also called His9-hMSR1; His-hMSR1
T1 sequence: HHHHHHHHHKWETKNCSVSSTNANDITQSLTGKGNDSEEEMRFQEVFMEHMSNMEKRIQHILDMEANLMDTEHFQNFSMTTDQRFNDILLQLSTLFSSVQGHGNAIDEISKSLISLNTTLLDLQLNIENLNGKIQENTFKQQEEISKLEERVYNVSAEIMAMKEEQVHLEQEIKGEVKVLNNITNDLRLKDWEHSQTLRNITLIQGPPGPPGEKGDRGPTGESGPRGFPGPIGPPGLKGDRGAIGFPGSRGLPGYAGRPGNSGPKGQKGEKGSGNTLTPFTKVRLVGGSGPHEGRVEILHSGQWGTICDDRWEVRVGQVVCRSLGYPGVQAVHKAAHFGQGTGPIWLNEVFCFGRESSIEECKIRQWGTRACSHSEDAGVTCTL
Description: (§1) Buffer alone was also added to wells on each coat. […] This assay was conducted in four different assay runs.
(§2) Data analysis was performed using a sigmoidal dose-response model within Prism™ software (GraphPad).

[2] = biological target: T2, mouse MSR1 on RAW264.7 cells (mouse, UniProt P30204 1-458); assay: flow cytometry, RAW264.7 cells
T2 construct: whole, on cells; also called MSR1 positive RAW264.7 cells
T2 sequence (looked up): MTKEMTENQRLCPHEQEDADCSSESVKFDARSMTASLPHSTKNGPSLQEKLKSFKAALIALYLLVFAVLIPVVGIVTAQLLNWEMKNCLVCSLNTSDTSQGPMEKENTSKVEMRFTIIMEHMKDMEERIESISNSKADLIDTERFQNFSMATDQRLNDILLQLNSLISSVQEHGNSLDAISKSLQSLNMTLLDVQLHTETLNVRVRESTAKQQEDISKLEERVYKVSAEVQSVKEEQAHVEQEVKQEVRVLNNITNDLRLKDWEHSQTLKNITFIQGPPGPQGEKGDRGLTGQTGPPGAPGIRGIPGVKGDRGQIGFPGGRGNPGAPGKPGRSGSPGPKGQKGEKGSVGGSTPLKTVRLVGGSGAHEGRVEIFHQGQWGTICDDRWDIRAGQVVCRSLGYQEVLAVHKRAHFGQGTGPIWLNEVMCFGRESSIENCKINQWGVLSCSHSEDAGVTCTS
Description: To block binding to Fc receptors, RAW264.7 cells were incubated for 30 minutes at 4° C. with 500 pg/mL mouse IgG (Jackson ImmunoResearch, Cat #015-000-003) diluted in staining buffer, while B16F10.9 cells remained in staining buffer. […] The signal to noise (S/N) was determined by calculating the ratio of the anti-MSR1 antibodies or the control antibodies MFI to the unstained sample MFI (Table 11).

[3] = biological target: T3, full length human MSR1 with a C-terminal Myc tag, on HEK293.Myc.hMSR1 cells (human, UniProt P21757 1-451); assay: cell-based or functional assay
T3 sequence (looked up): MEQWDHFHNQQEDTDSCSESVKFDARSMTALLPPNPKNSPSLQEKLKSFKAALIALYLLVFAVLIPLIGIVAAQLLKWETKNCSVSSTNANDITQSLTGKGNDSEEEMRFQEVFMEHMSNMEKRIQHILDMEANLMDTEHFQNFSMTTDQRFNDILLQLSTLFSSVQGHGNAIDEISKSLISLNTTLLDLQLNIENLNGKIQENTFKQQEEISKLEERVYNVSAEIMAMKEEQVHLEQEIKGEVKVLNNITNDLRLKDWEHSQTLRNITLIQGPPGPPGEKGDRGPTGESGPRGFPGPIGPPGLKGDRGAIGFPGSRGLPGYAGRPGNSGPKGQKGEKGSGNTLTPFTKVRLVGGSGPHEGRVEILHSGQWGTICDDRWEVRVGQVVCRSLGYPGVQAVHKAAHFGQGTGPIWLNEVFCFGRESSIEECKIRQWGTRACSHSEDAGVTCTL

[4] = biological target: T4, human MSR1 extracellular domain expressed with a N-terminal nonahistidine tag (His9-hMSR1); R&D Systems, Cat … (human, UniProt P21757 77-451); assay: SPR Biacore T200, 25 C, antibody captured by anti-human Fc, His9-hMSR1 injected; no dissociation seen, kd fixed at 1.00E-05;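 as to kon: running buffer HBS-ET pH 7.4, rates from sensorgrams fitted to a 1:1 model including mass transport limitation, KD and half-life derived from the kinetic constants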
T4 construct: extracellular domain; Bought reagent; also called His-hMSR1; 9xHis-hMSR1
T4 sequence: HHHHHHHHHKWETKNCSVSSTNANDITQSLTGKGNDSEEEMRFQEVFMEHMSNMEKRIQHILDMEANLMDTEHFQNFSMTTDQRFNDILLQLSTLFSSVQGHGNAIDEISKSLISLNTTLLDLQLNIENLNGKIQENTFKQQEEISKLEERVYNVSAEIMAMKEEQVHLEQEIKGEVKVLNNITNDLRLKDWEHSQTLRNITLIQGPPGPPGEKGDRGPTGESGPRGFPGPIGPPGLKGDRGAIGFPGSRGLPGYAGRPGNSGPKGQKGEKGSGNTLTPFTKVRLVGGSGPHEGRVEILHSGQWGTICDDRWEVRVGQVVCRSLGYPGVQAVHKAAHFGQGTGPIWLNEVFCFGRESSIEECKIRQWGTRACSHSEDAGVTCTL
Description: All binding studies were performed in 10 mM HEPES, 300 mM NaCl, 3 mM EDTA, and 0.05% v/v Surfactant Tween-20, pH 7.4 (HBS-ET) running buffer at 25° C.
The association rate (kₐ) and dissociation rate (kd) were determined by fitting the real-time binding sensorgrams to a 1:1 binding model with mass transport limitation using Scrubber 2.0c curve-fitting software. Binding dissociation equilibrium constant (KD) and dissociative half-life (t½) were calculated from the kinetic rates as:

[5] = biological target: T4, human MSR1 extracellular domain …; assay: SPR Biacore T200, 25 C, antibody captured by anti-human Fc, His9-hMSR1 injected;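 also: running buffer HBS-ET pH 7.4, rates from sensorgrams fitted to a 1:1 model including mass transport limitation, KD and half-life derived from the kinetic constants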
[6] = biological target: T1, human MSR1 extracellular domain …; assay: competition ELISA, plate-coated His9-hMSR1; 100 nM antibody, competitor ligand Ac-LDL
Description: as §1, §2

B1: H1H27771P2-N297Q (antibody, V domains shown)
VH: EVQLVESGGGLVQPGGSLRLSCAASGFTFSSYGMNWVRQAPGKGLEWVSVISGSGGSTYYADSVKGRFTISRDNSKNTLYLQMNSLRAEDTAVYYCAKDRWTYYYDSSGSPFDYWGQGTLVTVSS
VL: not shown
notes: Human IgG1 Fc with N297Q; also called H1H27771P-N297Q
- % Blocking [1]: -1%

B2: H1H27771P2-N297Q (antibody, human IgG1, V domains shown)
VH: EVQLVESGGGLVQPGGSLRLSCAASGFTFSSYGMNWVRQAPGKGLEWVSVISGSGGSTYYADSVKGRFTISRDNSKNTLYLQMNSLRAEDTAVYYCAKDRWTYYYDSSGSPFDYWGQGTLVTVSS
VL: not shown
notes: human IgG1 Fc with N297Q; also called H1H27771P-N297Q
- S/N (MFI over unstained MFI) [2]: 1

B3: H1H27749P-N297Q (antibody, human IgG1, V domains shown)
VH: QVQLQESGPGLVKPSETLSLTCTVSDGSISSYYWSWIRQPPGRGLEWIGFIYYSGSTSYNPSLKSRVTISVDTSMSQFSLKLRSVTAADTAVYYCARGSPFDYWGPGTLVTVSS
VL: EIVLTQSPGTLSLSPGERATLSCRASQSVSSSYLAWYQQRPGQAPSLLISGASRRATGIPDRFSGSGSGTDFTLTIRRLEPEDFAMYYCQQYGSSPPTFGGGTKVEIKR
notes: human IgG1 Fc with N297Q
- MFI [2]: 3790 MFI
- S/N (MFI over unstained MFI) [2]: 1

B4: H1H27732P-N297Q (antibody, human IgG1, V domains shown)
VH: QLQLQESGPGLVKPSETLSLTCTVSGGSISSSTYYWGWIRQPPGKGLEWIGSFYYSGSTYYNPSLKSRVTISVGTSKNQFSLKLSSVTAADTAVYFCARGGLLGRPFVIWGQGTMVTVSS
VL: DIQMTQSPSSLSASVGDRVTITCRASQGIRNDLGWYQQKPGKAPKRLIYAASSLQSGVPSRFSGSGSGTEFTLTISSLQPEDFATYYCLQHNSYPLTFGGGTKVEIKR
notes: human IgG1 Fc with N297Q
- MFI [2]: 3420 MFI
- S/N (MFI over unstained MFI) [2]: 1
- % Inhibition of Dil-Acetylated LDL uptake [3]: 62%
- % Inhibition of Dil-Oxidized LDL uptake [3]: 86%

B5: H1H27732P-N297Q-LP1 (antibody, human IgG1, V domains shown)
VH: QLQLQESGPGLVKPSETLSLTCTVSGGSISSSTYYWGWIRQPPGKGLEWIGSFYYSGSTYYNPSLKSRVTISVGTSKNQFSLKLSSVTAADTAVYFCARGGLLGRPFVIWGQGTMVTVSS
VL: DIQMTQSPSSLSASVGDRVTITCRASQGIRNDLGWYQQKPGKAPKRLIYAASSLQSGVPSRFSGSGSGTEFTLTISSLQPEDFATYYCLQHNSYPLTFGGGTKVEIKR
modifications: LXR agonist linker-payload LP1 clicked to azido-PEG3-amine on Q295 and Q297 (EU) of the heavy chain constant region
notes: antibody-drug conjugate; human IgG1 Fc with N297Q (EU); also called H1H27732P-LP1
- Kd [4]: ≤ 0.066 nM
- koff [4]: ≤ 1e-05 s⁻¹
- t½ [4]: ≥ 19.3 h
- kon [5]: 150000 M⁻¹ s⁻¹

B6: H1H27732P-N297Q (antibody, human IgG1, V domains shown)
VH: QLQLQESGPGLVKPSETLSLTCTVSGGSISSSTYYWGWIRQPPGKGLEWIGSFYYSGSTYYNPSLKSRVTISVGTSKNQFSLKLSSVTAADTAVYFCARGGLLGRPFVIWGQGTMVTVSS
VL: DIQMTQSPSSLSASVGDRVTITCRASQGIRNDLGWYQQKPGKAPKRLIYAASSLQSGVPSRFSGSGSGTEFTLTISSLQPEDFATYYCLQHNSYPLTFGGGTKVEIKR
notes: human IgG1 Fc with N297Q (EU)
- Kd [4]: ≤ 0.045 nM
- t½ [4]: ≥ 19.3 h

B7: H1H27778P2-N297Q (antibody, human IgG1, V domains shown)
VH: EVQLVESGGGLEQPGGSLRLSCAASGFTFSSYAMSWVRQAPGKGLEWVSVISGSGGYTNYADSVKGRFTISRDNSKNTLYLQMNRLRAEDSAVYYCARHNWNYDYYGMDVWGQGTTVTVSS
VL: not shown
notes: Human IgG1 Fc with N297Q; also called H1H27778P-N297Q
- % Blocking [6]: -40%
- % Blocking [1]: -8%

B8: H1H27778P2-N297Q (antibody, human IgG1, V domains shown)
VH: EVQLVESGGGLEQPGGSLRLSCAASGFTFSSYAMSWVRQAPGKGLEWVSVISGSGGYTNYADSVKGRFTISRDNSKNTLYLQMNRLRAEDSAVYYCARHNWNYDYYGMDVWGQGTTVTVSS
VL: not shown
notes: human IgG1 Fc with N297Q; also called H1H27778P-N297Q
- S/N (MFI over unstained MFI) [2]: 1
